Consider eight molecules from patent US20240156935A1 (VIB VZW, published 2024).

The labels stand for the following.
T1: recombinant Q586B2 protein (Tb927.6.4140), produced in E. coli WK6
T1 chain: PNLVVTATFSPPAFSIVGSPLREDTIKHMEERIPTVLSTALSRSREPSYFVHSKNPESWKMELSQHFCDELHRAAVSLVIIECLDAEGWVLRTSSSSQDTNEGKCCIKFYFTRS

T2: native Q586B2 (Tb927.6.4140) of Trypanosoma brucei brucei parasites (Trypanosoma brucei brucei)
T2 construct: Native protein; also called native protein
T2 chain: T1 chain

B1: Nb34 (VHH)
VHH: QVQLQESGGGLVQPGGSLRLSCAASGFTFSNSPMNWVRQAPGKGLEWVSAINSGGGSTYYADSVKGRFTISRDNAKNTLYLQMNSLKPEDTAVYYCAKGGRTYYSGSYYSWGMDYWGKGTQVTVSS
B2: Nb41 (VHH)
VHH: QVQLQESGGGLVQAGGSLRLSCAASGRTFSSYAMGWFRQAPGKEREFIALISWIGGSTAYADSVKGRFTISRDNAKNTLYLQMNSLKPEDTAVYYCATDRIGRHRGPGTQVTVSS
notes: Llama nanobody purified by IMAC and SEC; It was HA-tagged in flow cytometry; also called anti-Q586B2 Nb
B3: Nb58 (VHH)
VHH: QVQLQESGGGLVQPGGSLRLSCAASGRSISSIYAMGWYRQAPGKQRELVARLTSGGSSNYADSVKGRFTITRDNAQNTVYLQMNSLKPEDTAVYYCNAEPSRWWLDDDYWGQGTQVTVSS
notes: as for B2
B4: Nb27 (VHH)
VHH: QVQLQESGGGLVQPGGSLRLSCTTSRSILSIYAMGWYRQAPGKQRELVAVITSGGSTYYADSVKGRFTISRDNAKNTLYLQMNSLKPEDTALYYCARGGYGTSPQPSWGQGTQVTVSS
B5: Nb39 (VHH)
VHH: QVQLQESGGGLVQPGGSLRLSCTASGSIFSGYAMGWYRQAPGKQRELVAGITSGGSTIYAGSVKGRFTISRDNAKNTVYLQMNSLKPEDTAVYYCKNGTYYSARDYWGQGTQVTVSS
B6: Nb32 (VHH)
VHH: QVQLQESGGGLVQPGGSLRLSCAASGFTFSAYAMSWVRQAPGKGLEWVSTIDSGGGSTYYADSVKGRFTISRDNAKKTLYLHMNSLKPEDTAVYYCAKRGYSDYARHVWGQGTQVTVSS
notes: as for B2
B7: Nb36 (VHH)
VHH: QVQLQESGGGLVQPGGSLRLSCAASGFAFSFYWMNWVRQAPGKGLEWVSAINSGGGSTYYADSVKGRFTISRDNAKNTLYLQMNSLKPEDTAVYYCAKGIVQRGEYYGMDYWGKGTQVTVSS
B8: Nb53 (VHH)
VHH: QVQLQESGGGSVQAGGSLRLSCSASGYTYSSHCTAWFRQAPGKEREALAAINSRSGTTYYADSVKGRFTISQDNTKNTAYLQMNSLKPEDTATYFCAALSFGCTGPLASLGQGTQVTVSS

The target in the first assay is T1, recombinant Q586B2 protein …. Kind of assay: ELISA. On the technique in general: An ELISA detects its analyte on a solid surface through an enzyme-linked reagent.
Take B1: the Kd (in general, the constant that tells how readily two partners part at equilibrium) is 36.7 nM. Same read-out and setting: the same measure for B2: 14.5 nM; for B3: 36.7 nM; for B4: 52 nM. Same read-out and setting: under B5 stands 49.9 nM. Still for that read-out and setting: under B6 stands 46.6 nM; under B7, 11.3 nM; under B8, 45.5 nM.

In the next assay the target is T2, native Q586B2 (Tb927.6.4140) of …. Kind of assay: flow cytometry on purified T. brucei brucei parasites, HA-tagged Nb, Alexa-488 anti-HA IgG. In general terms: Flow cytometry measures light scatter and fluorescence of single cells or particles in a stream.
Experimental: FIG. 4A) Representative flow cytometric profile of purified, fixed and permeabilized T. brucei brucei parasites plotted in an SSC-A versus FSC-A plot and subsequently gating on single cells (FSC-H versus FSC-A plot). 10⁶ parasites in presence or absence of 5 μg of HA-tagged Nb was used per condition.
Regarding B2, the binding result was “binds”. Consider B3, for which the binding result is on record as “binds”. For the molecule B6, the binding result is on record as “binds”.
